Data as given in patent US20160038588A1, “Myostatin Antagonism in Human Subjects” (AMGEN INC., priority 2013, published 2016).

biological target: T1, myostatin (Homo sapiens, UniProt O14793); assay: C2C12 pMARE-luc cell based myostatin activity assay; settings: not given
T1 construct: To produce mature myostatin, the pooled promyostatin was enzymatically cleaved between the propeptide and mature myostatin C terminal; made in house
T1 sequence (O14793 267-375): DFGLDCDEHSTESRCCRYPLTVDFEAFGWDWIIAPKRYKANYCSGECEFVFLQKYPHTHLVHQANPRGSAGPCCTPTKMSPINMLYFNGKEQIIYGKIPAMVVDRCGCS
Excerpt: The antagonists including the binding agents described herein can be tested for their ability to bind myostatin and inhibit or block myostatin activity. Any number of assays or animal tests may be used to determine the ability of the agent to inhibit or block myostatin activity. Several assays used for characterizing the peptides and peptibodies of the present invention are described in the Examples below. One assay is the C2C12 pMARE-luc assay which makes use of a myostatin-responsive cell line (C2C12 myoblasts) transfected with a luciferase reporter vector containing myostatin/activin response elements (MARE). Exemplary peptibodies are assayed by pre-incubating a series of peptibody dilutions with myostatin, and then exposing the cells to the incubation mixture. The resulting luciferase activity is determined, and a titration curve is generated from the series of peptibody dilutions. The IC50 (the concentration of peptibody to achieve 50% inhibition of myostatin activity as measured by luciferase activity) was then determined. A second assay described below is a BIAcore® assay to determine the kinetic parameters ka (association rate constant), kd (dissociation rate constant), and KD (dissociation equilibrium constant) for the myostatin binding agents and other antagonists such as antibodies capable of binding myostatin and its receptor. Lower dissociation equilibrium constants (KD, expressed in nM) indicated a greater affinity of the peptibody for myostatin. […] These assays are described in Example 3.
C2C12 Cell Based Myostatin Activity Assay
A myostatin-responsive reporter cell line was generated by transfection of C2C12 myoblast cells (ATCC No: CRL-1772) with a pMARE-luc construct. The pMARE-luc construct was made by cloning twelve repeats of the CAGA sequence, representing the myostatin/activin response elements (Dennler et al. EMBO 17: 3091-3100 (1998)) into a pLuc-MCS reporter vector (Stratagene cat #219087) upstream of the TATA box. The myoblast C2C12 cells naturally express myostatin/activin receptors on its cell surface. When myostatin binds the cell receptors, the Smad pathway is activated, and phosphorylated Smad binds to the response element (Macias-Silva et al. Cell 87:1215 (1996)), resulting in the expression of the luciferase gene. Luciferase activity is then measured using a commercial luciferase reporter assay kit (cat # E4550, Promega, Madison, Wis.) according to manufacturer's protocol. A stable line of C2C12 cells that had been transfected with pMARE-luc (C2C12/pMARE clone #44) was used to measure myostatin activity according to the following procedure.
Equal numbers of the reporter cells (C2C12/pMARE clone #44) were plated into 96 well cultures. A first round screening using two dilutions of peptibodies was performed with the myostatin concentration fixed at 4 nM. Recombinant mature myostatin was preincubated for 2 hours at room temperature with peptibodies at 40 nM and 400 nM respectively. The reporter cell culture was treated with the myostatin with or without peptibodies for six hours. Myostatin activity was measured by determining the luciferase activity in the treated cultures. This assay was used to initially identify peptibody hits that inhibited the myostatin signaling activity in the reporter assay. Subsequently, a nine point titration curve was generated with the myostatin concentration fixed at 4 nM. The myostatin was preincubated with each of the following nine concentrations of peptibodies: […], 0.4 nM, 4 nM, 20 nM, 40 nM, 200 nM, 400 nM, 2 uM and 4 uM for two hours before adding the mixture to the reporter cell culture. The IC50 values were for a number of exemplary peptibodies are provided in Tables III and for affinity matured peptibodies, in Table VIII.

**Q.** Which “inhibition of myostatin activity in cell-based assay” value does the source give for “L2: peptibody; peptide MEMLDSLFELLKDMVPISKA” here?
**A.** inhibit myostatin activity

same assay, conditions: affinity matured peptibodies; a range of values is given

**Q.** For “mTN8-19-11: affinity-matured peptibody; peptide IYPHDQCTRWPWMCPPQPYP”, which IC50 is on record?
**A.** 28.7 nM

**Q.** With “1× mTN8-19-21: 1× affinity-matured peptibody; peptide SEYQGLCTRWPWMCPPQGWK” as the substance, how does the IC50 read?
**A.** 2.77 to 3.6 nM

**Q.** With “mTN8-19-28: affinity-matured peptibody; peptide SGPQGHCTRWPWMCAPQGWF” as the substance, how does the IC50 read?
**A.** 4.39 nM

**Q.** With “mTN8-19-2: affinity-matured peptibody; peptide YPEQGLCTRWPWMCPPQTLA” as the substance, how does the IC50 read?
**A.** 7.51 to 34.4 nM

**Q.** With “mTN8-19-13: affinity-matured peptibody; peptide MWQQGHCTRWPWMCPPQGWG” as the substance, how does the IC50 read?
**A.** 20 nM

**Q.** For “mTN8-19-14: affinity-matured peptibody; peptide EFTQWHCTRWPWMCPPQRSQ”, which IC50 is on record?
**A.** 4.07 to 6.56 nM

**Q.** For “mTN8-19-6: affinity-matured peptibody; peptide GVNQGQCTRWRWMCPPNGWE”, which IC50 is on record?
**A.** 17.3 nM

**Q.** With “mTN8-19-23: affinity-matured peptibody; peptide PGAHDHCTRWPWMCPPQSRY” as the substance, how does the IC50 read?
**A.** 6.58 nM

**Q.** With “mTN8-19-4: affinity-matured peptibody; peptide MITQGQCTRWPWMCPPQPSG” as the substance, how does the IC50 read?
**A.** 16.7 nM

**Q.** Which IC50 does the source give for “mTN8-19 con1: affinity-matured peptibody; peptide VATQGQCTRWPWMCPPQGWG” here?
**A.** 1 to 4.4 nM

**Q.** With “mTN8-19-34: affinity-matured peptibody; peptide IPAHGHCTRWPWMCPPQRWR” as the substance, how does the IC50 read?
**A.** 5.03 to 5.07 nM

**Q.** For “1× mTN8-19-33: 1× affinity-matured peptibody; peptide PESQGHCTRWPWMCPPQGWG”, which IC50 is on record?
**A.** 2.15 to 2.75 nM

**Q.** With “mTN8-19-5: affinity-matured peptibody; peptide AGAQEHCTRWPWMCAPNDWI” as the substance, how does the IC50 read?
**A.** 3.5 to 7.74 nM

**Q.** For “mTN8-19-16: affinity-matured peptibody; peptide YQTQGLCTRWPWMCPPQSQR”, which IC50 is on record?
**A.** 4.65 nM

**Q.** With “mTN8-19-29: affinity-matured peptibody; peptide TLVQGHCTRWPWMCPPQRWV” as the substance, how does the IC50 read?
**A.** 6.36 nM

**Q.** Which IC50 does the source give for “mTN8-19-9: affinity-matured peptibody; peptide TQTHAQCTRWPWMCPPQWEG” here?
**A.** 18.8 to 23 nM

**Q.** Which IC50 does the source give for “1× mTN8-19-32: 1× affinity-matured peptibody; peptide VADHGHCTRWPWMCPPQGWG” here?
**A.** 1.84 to 3.35 nM

**Q.** With “mTN8-19-27: affinity-matured peptibody; peptide ADTQGHCTRWPWMCPPQHWF” as the substance, how does the IC50 read?
**A.** 4.84 to 4.92 nM

**Q.** Which IC50 does the source give for “mTN8-19-24: affinity-matured peptibody; peptide VAEEWHCRRWPWMCPPQDWR” here?
**A.** 1.67 to 2.93 nM

**Q.** With “mTN8-19-12: affinity-matured peptibody; peptide SYWQGQCTRWPWMCPPQWRG” as the substance, how does the IC50 read?
**A.** 980 nM

**Q.** For “1× mTN8-19-22: 1× affinity-matured peptibody; peptide TFSQGHCTRWPWMCPPQGWG”, which IC50 is on record?
**A.** 1.93 to 3.26 nM

**Q.** Which IC50 does the source give for “mTN8-19-10: affinity-matured peptibody; peptide VVTQGHCTLWPWMCPPQRWR” here?
**A.** 5.25 to 7.4 nM

same assay, conditions: pMARE luc cell-based assay, myostatin 4 nM

**Q.** For “Linear-20: peptibody; peptide YREMSMLEGLLDVLERLQHY”, which IC50 is on record?
**A.** ~11 nM

**Q.** Which IC50 does the source give for “TN12-34: peptibody; peptide AHWCEQGPWRYGNICMAY” here?
**A.** ~30 nM

tested on: mdx mice; assay: Treatment of aged mdx mice (Duchenne muscular dystrophy model); type: in vivo, mouse; settings: 10 mg/kg s.c. every other day, three months, vs huFc
Protocol: Muscular dystrophy is one of those disorders. The mouse model for Duchenne's muscular dystrophy is the Duchenne mdx mouse (Jackson Laboratories, Bar Harbor, Me.). Aged (10 month old) mdx mice were injected with either the peptibody 1× mTN8-19-33 (n=8/group) or with the vehicle huFc protein (N=6/group) for a three month period of time. The dosing schedule was every other day, 10 mg/kg, by subcutaneous injection.

**Q.** Which body weight does the source give for “1× mTN8-19-33: 1× affinity-matured peptibody; peptide PESQGHCTRWPWMCPPQGWG” here?
**A.** Significant increases in body weight

**Q.** What about the “fat percentage of body weight” value of the same substance?
**A.** decreased

**Q.** What about the “lean body mass to fat mass ratio (NMR)” value of the same substance?
**A.** significantly increased

tested on: CD1 nu/nu mice; assay: In vivo anabolic activity in CD1 nu/nu mouse model; settings: 1× peptibody; 1, 3, 10 mg/kg s.c. twice or once weekly, 14 days, vs huFc control
Excerpt: In Vivo Anabolic Activity of Exemplary Peptibodies
The CD1 nu/nu mouse model (Charles River Laboratories, Massachusetts) was used to determine the in vivo efficacy of the peptibodies of the present invention which included the human Fc region (huFc). This model responded to the inhibitors of the present invention with a rapid anabolic response which was associated with increased dry muscle mass and an increase in myofibrillar proteins but was not associated with accumulation in body water content.
A group of 10 8 week old CD1 nu/nu mice were treated twice weekly or once weekly with dosages of 1 mg/kg, 3 mg/kg and 10 mg/kg (subcutaneous injection). The control group of 10 8 week old CD1 nu/nu mice received a twice weekly (subcutaneous) injection of huFc (vehicle) at 10 mg/kg. The animals were weighed every other day and lean body mass determined by NMR on day 0 and day 13. The animals are then scarified at day 14 and the size of the gastrocnemius muscle determined.
In another example, the 1× mTN8-19-32 peptibody was administered to CD1 nu/nu mice in a biweekly injection of 1 mg/kg, 3 mg/kg, 10 mg/kg, and 30 mg/kg compared with the huFc control (vehicle).
CD1 nu/nu male mice (10 animals per group) were treated with twice weekly injections of 1 mg/kg and 3 mg/kg of 1× mTN8-19-7 and 2× mTN8-19-7 for 35 days, while the control group (10 animals) received twice weekly injections of huFc (3 mg/kg).

**Q.** With “1× mTN8-19-21: 1× affinity-matured peptibody; peptide SEYQGLCTRWPWMCPPQGWK” as the substance, how does the total body weight read?
**A.** increase in body weight compared with the control

same assay, conditions: biweekly injection 1, 3, 10, 30 mg/kg vs huFc control

**Q.** Which total body weight does the source give for “1× mTN8-19-32: 1× affinity-matured peptibody; peptide VADHGHCTRWPWMCPPQGWG” here?
**A.** increase in total body weight

same assay, conditions: biweekly injection 1, 3, 10, 30 mg/kg; day 13 compared with day 0

**Q.** Which “lean body mass (NMR)” value does the source give for “1× mTN8-19-32: 1× affinity-matured peptibody; peptide VADHGHCTRWPWMCPPQGWG” here?
**A.** increase

tested on: not listed separately; assay: In vivo pharmacokinetics in CD1 nu/nu mice; set-up: species or system mouse; settings: 10 mg/kg and 5 mg/kg, peptibodies without LE sequences
Protocol: In vivo pharmacokinetics experiments were performed using representative peptibodies without the LE sequences.

**Q.** Which half-life does the source give for “1× mTN8-19-7: 1× affinity-matured peptibody; peptide LADHGQCIRWPWMCPPEGWE” here?
**A.** about 65 hours

**Q.** Which half-life does the source give for “1× mTN8-19-22: 1× affinity-matured peptibody; peptide TFSQGHCTRWPWMCPPQGWG” here?
**A.** about 50.2 hours
